Measured values from patent publication US20140255408A1 (Janssen / Centocor, published 2014).

How the values were obtained:
[1] = biological target: T1, recombinant human extracellular domain of EGFR fused to an IgG1 Fc (human, UniProt P00533 25-645); assay: affinity printed beside the clone name; SPR on EGFR-Fc taken as the method
T1 construct: Bought from R&D Systems; The residues are stated for the panning reagent; also called EGFR-Fc; EGF R-Fc; not shown: IgG1 Fc

[2] = biological target: T1, recombinant human extracellular domain …; assay: SPR (ProteOn), EGFR-Fc captured on anti-human Fc IgG, FN3 domain as analyte
Protocol: Select EGFR-binding FN3 domains were screened to identify those with slow off-rates (koff) in binding to EGFR-Fc on a ProteOn XPR-36 instrument (Bio-Rad) to facilitate selection of high affinity binders. Goat anti-human Fc IgG (R&D systems), at a concentration of 5 μg/mL, was directly immobilized via amine coupling (at pH 5.0) on all 6 ligand channels in horizontal orientation on the chip with a flow rate of 30 μL/min in PBS containing 0.005% Tween-20. The immobilization densities averaged about 1500 Response Units (RU) with less than 5% variation among different channels. EGFR-Fc was captured on the anti-human Fc IgG surface to a density around 600 RU in vertical ligand orientation. All tested FN3 domains were normalized to a concentration of […] and tested for their binding in horizontal orientation. All 6 analyte channels were used for the FN3 domains to maximize screening throughput. The dissociation phase was monitored for 10 minutes at a flow rate of 100 μL/min. The inter-spot binding signals were used as references to monitor non-specific binding between analytes and the immobilized IgG surface, and were subtracted from all binding responses. The processed binding data were locally fit to a 1:1 simple Langmuir binding model to extract the koff for each FN3 domain binding to captured EGFR-Fc.
Binding affinity of selected EGFR-binding FN3 domains to recombinant EGFR extracellular domain was further characterized by surface Plasmon resonance methods using a Proteon Instrument (BioRad). The assay set-up (chip preparation, EGFR-Fc capture) was similar to that described above for off-rate analysis. Selected EGFR binding FN3 domains were tested at 1 μM concentration in 3-fold dilution series in the horizontal orientation. A buffer sample was also injected to monitor the baseline stability.

human EGFR on cells [3] = biological target: T2, human EGFR on cells (human, UniProt P00533 25-1210); assay: A431 cell EGF competition assay, competitor biotinylated EGF; A431 cell EGF competition assay: displaces EGF from EGFR on A431 cells
T2 construct: Wild type EGFR on A431, NCI-H292, NCI-H322, NCI-H441 and SNU-5 cells; in U-2 OS cells a beta-galactosidase fragment was fused to its C-terminus; also called epidermal growth factor receptor; HER1

human EGFR on cells [4] = biological target: T2, human EGFR on cells; assay: cell-based or functional assay
human c-Met on cells [5] = biological target: T3, human c-Met on cells (human, UniProt P08581 25-1390); assay: H441 cell binding assay (assay for c-Met binding)
T3 construct: c-Met on NCI-H441, NCI-H292, NCI-H1975 and U87-MG cells; in U-2 OS cells a beta-galactosidase fragment was fused to its C-terminus; also called hepatocyte growth factor receptor
Protocol: Purified FN3 domains (50 μL/well; 0 to 1000 nM) were added to the cells for 1 hour at 4° C. in duplicate plates. […] Cells were incubated with biotinylated-anti HIS antibody (diluted 1:160 in FACS stain buffer, 50 μL/well, R&D Systems, cat #BAM050) for 30 minutes at 4° C. […] Cells were washed three times with FACS stain buffer (150 μL/well) and left in FACS stain buffer (50 μL/well).

human c-Met on cells [6] = biological target: T3, human c-Met on cells; assay: cell-based or functional assay
human EGFR on cells [7] = biological target: T2, human EGFR on cells; assay: A431 cell binding assay (assay for EGFR binding)
[8] = biological target: human c-Met extracellular domain (human, UniProt P08581 16-932); assay: MSD plate competition assay, competitor biotinylated HGF at 10 nM
Protocol: MSD Blocker A buffer (Meso Scale Discovery, Gaithersburg, Md.) was added to each well and incubated for 2 hr at room temperature. […] After 2-hour incubation with gentle shaking at room temperature, the plates were washed 3 times with 0.1M HEPES buffer (pH 7.4). MSD Read Buffer T was diluted and dispensed and the signals were analyzed with a SECTOR Imager 6000.

B1: P53A1R5-17v2 (designed binder, not shown: small tags and cut ends)
chain: LPAPKNLVVSEVTEDSARLSWADPHGFYDSFLIQYQESEKVGEAIVLTVPGSERSYDLTGLKPGTEYTVSIYGVHNVYKDTNMRGLPLSAIFTT
Kd [1]: 1.9 nM

B2: P54CR4-31 (designed binder, not shown: small tags and cut ends)
chain: LPAPKNLVVSEVTEDSLRLSWTAPDAAFDSFLIQYQESEKVGEAINLTVPGSERSYDLTGLKPGTEYTVSIYGVLGSYVFEHDVMLPLSAEFTT
Kd [2]: 0.383 nM
IC50 (human EGFR on cells [3]): 55 nM
NCI-H292 Growth IC50 (human EGFR on cells [4]): 1150 nM
NCI-H322 Growth IC50 (human EGFR on cells [4]): > 3070 nM
Phospho-EGFR IC50 (A431 cells) (human EGFR on cells [4]): 179 nM

B3: control monovalent anti-cMet mAb M1-K409R-gp120-F405L (bispecific antibody, human IgG1, kappa)
heavy 1: not shown
light 1: DIQMTQSPSSVSASVGDRVTITCRASQGISNWLAWFQHKPGKAPKLLIYAASSLLSGVPSRFSGSGSGTDFTLTISSLQPEDFATYYCQQANSFPITFGQGTRLEIKRTVAAPSVFIFPPSDEQLKSGTASVVCLLNNFYPREAKVQWKVDNALQSGNSQESVTEQDSKDSTYSLSSTLTLSKADYEKHKVYACEVTHQGLSSPVTKSFNRGEC
heavy 2: not shown
light 2: EIVLTQSPGTLSLSPGERATFSCRSSHSIRSRRVAWYQHKPGQAPRLVIHGVSNRASGISDRFSGSGSGTDFTLTITRVEPEDFALYYCQVYGASSYTFGQGTKLERKRTVAAPSVFIFPPSDEQLKSGTASVVCLLNNFYPREAKVQWKVDNALQSGNSQESVTEQDSKDSTYSLSSTLTLSKADYEKHKVYACEVTHQGLSSPVTKSFNRGEC
notes: also called M1-K409R-120-F405L
EC50 (human c-Met on cells [5]): 1 nM
inhibition of ligand-induced c-Met phosphorylation in H292 cells (IC50) (human c-Met on cells [6]): 4.05 nM

B4: control monovalent anti-EGFR mAb E1-F405L-gp120-K409R (bispecific antibody, human IgG1, kappa)
heavy 1: not shown
light 1: not shown
heavy 2: not shown
light 2: B3 light 2
notes: also called E1-F405L-120-K409R
EC50 (human EGFR on cells [7]): 10.1 nM

B5: parental bivalent anti-c-Met antibody M1-K409R (antibody, human IgG1, kappa, V domains shown)
VH: QVQLVQSGAEVKKPGASVKVSCETSGYTFTSYGISWVRQAPGHGLEWMGWISAYNGYTNYAQKLQGRVTMTTDTSTSTAYMELRSLRSDDTAVYYCARDLRGTNYFDYWGQGTLVTVSS
VL: DIQMTQSPSSVSASVGDRVTITCRASQGISNWLAWFQHKPGKAPKLLIYAASSLLSGVPSRFSGSGSGTDFTLTISSLQPEDFATYYCQQANSFPITFGQGTRLEIKR
notes: also called parental bivalent antibody; Parental mAbs
EC50 (human c-Met on cells [5]): 0.65 nM
IC50 [8]: 14.8 nM
